Data from IntAct's records for PubMed 15205472.

B1: Prospero homeobox protein 1 (Homo sapiens), Q92786 (parent)
chain: MPDHDSTALLSRQTKRRRVDIGVKRTVGTASAFFAKARATFFSAMNPQGSEQDVEYSVVQHADGEKSNVLRKLLKRANSYEDAMMPFPGATIISQLLKNNMNKNGGTEPSFQASGLSSTGSEVHQEDICSNSSRDSPPECLSPFGRPTMSQFDMDRLCDEHLRAKRARVENIIRGMSHSPSVALRGNENEREMAPQSVSPRESYRENKRKQKLPQQQQQSFQQLVSARKEQKREERRQLKQQLEDMQKQLRQLQEKFYQIYDSTDSENDEDGNLSEDSMRSEILDARAQDSVGRSDNEMCELDPGQFIDRARALIREQEMAENKPKREGNNKERDHGPNSLQPEGKHLAETLKQELNTAMSQVVDTVVKVFSAKPSRQVPQVFPPLQIPQARFAVNGENHNFHTANQRLQCFGDVIIPNPLDTFGNVQMASSTDQTEALPLVVRKNSSDQSASGPAAGGHHQPLHQSPLSATTGFTTSTFRHPFPLPLMAYPFQSPLGAPSGSFSGKDRASPESLDLTRDTTSLRTKMSSHHLSHHPCSPAHPPSTAEGLSLSLIKSECGDLQDMSEISPYSGSAMQEGLSPNHLKKAKLMFFYTRYPSSNMLKTYFSDVKFNRCITSQLIKWFSNFREFYYIQMEKYARQAINDGVTSTEELSITRDCELYRALNMHYNKANDFEVPERFLEVAQITLREFFNAIIAGKDVDPSWKKAIYKVICKLDSEVPEIFKSPNCLQELLHE
B2: Nuclear receptor subfamily 5 group A member 2 (Homo sapiens), O00482-2 (parent)
chain: MSSNSDTGDLQESLKHGLTPIVSQFKMVNYSYDEDLEELCPVCGDKVSGYHYGLLTCESCKGFFKRTVQNNKRYTCIENQNCQIDKTQRKRCPYCRFQKCLSVGMKLEAVRADRMRGGRNKFGPMYKRDRALKQQKKALIRANGLKLEAMSQVIQAMPSDLTISSAIQNIHSASKGLPLNHAALPPTDYDRSPFVTSPISMTMPPHGSLQGYQTYGHFPSRAIKSEYPDPYTSSPESIMGYSYMDSYQTSSPASIPHLILELLKCEPDEPQVQAKIMAYLQQEQANRSKHEKLSTFGLMCKMADQTLFSIVEWARSSIFFRELKVDDQMKLLQNCWSELLILDHIYRQVVHGKEGSIFLVTGQQVDYSIIASQAGATLNNLMSHAQELVAKLRSLQFDQREFVCLKFLVLFSLDVKNLENFQLVEGVQEQVNAALLDYTMCNYPQQTEKFGQLLLRLPEIRAISMQAEEYLYYKHLNGDVPYNNLLIEMLHAKRA

Variants of: B1
Conditions: with NR5A2, O00482-2

Variant | effect of a mutation on the interaction
L70A;L73A | disrupting interaction

Variants of: B2
Conditions: with prox1_human PROX1, Q92786

Variant | effect of a mutation on the interaction
MSSNSDTGDLQESLKHGLTPIVSQFKMVNYSYDEDLEELCPVCGDKVSGYHYGLLTCESCKGFFKRTVQNNKRYTCIENQNCQIDKTQRKRCPYCRFQKCLSVGMKLEAVRADRMRGGRNKFGPMYKRDRALKQQKKALIRANGLKLEAMSQVIQAMPSDLTISSAIQNIHSASKGLPLNHAALPPTDYDRSPFVTSPISMTMPPHGSLQGYQTYGHFPSRAIKSEYPDPYTSSPESIMGYSYMDSYQTSSPASIPHLILELLKCEPDEPQVQAKIMAYLQQEQANRSKHEKLSTFGLMCKMADQTLFSIVEWARSSIFFRELKVAAQAKLLQNCWSELLILDHIYRQVVHGKEGSIFLVTGQQVDYSIIASQAGATLNNLMSHAQELVAKLRSLQFDQREFVCLKFLVLFSLDVKNLENFQLVEGVQEQVNAALLDYTMCNYPQQTEKFGQLLLRLPEIRAISMQAEEYLYYKHLNGDVPYNNLLIEMLHAKRA [D326A;D327A;M329A] | decreasing interaction
MSSNSDTGDLQESLKHGLTPIVSQFKMVNYSYDEDLEELCPVCGDKVSGYHYGLLTCESCKGFFKRTVQNNKRYTCIENQNCQIDKTQRKRCPYCRFQKCLSVGMKLEAVRADRMRGGRNKFGPMYKRDRALKQQKKALIRANGLKLEAMSQVIQAMPSDLTISSAIQNIHSASKGLPLNHAALPPTDYDRSPFVTSPISMTMPPHGSLQGYQTYGHFPSRAIKSEYPDPYTSSPESIMGYSYMDSYQTSSPASIPHLILELLKCEPDEPQVQAKIMAYLQQEQANRSKHEKLSTFGLMCKMADQTLFSIVEWARSSIFFRELKVDDQMKLLQNCWSELLILDHIYRQVVHGKEGSIFLVTGQQVDYSIIASQAGATLNNLMSHAQELVAKLRSLQFDQREFVCLKFLVLFSLDVKNLENFQLVEGVQEQVNAALLDYTMCNYPQQTEKFGQAALRLPEIRAISMQAEEYLYYKHLNGDVPYNNLLIEMLHAKRA [L453A;L454A] | disrupting interaction

Second part, the variant after the results:

effect of a mutation on the interaction | Variant
decreasing interaction | MSSNSDTGDLQESLKHGLTPIVSQFKMVNYSYDEDLEELCPVCGDKVSGYHYGLLTCESCKGFFKRTVQNNKRYTCIENQNCQIDKTQRKRCPYCRFQKCLSVGMKLEAVRADRMRGGRNKFGPMYKRDRALKQQKKALIRANGLKLEAMSQVIQAMPSDLTISSAIQNIHSASKGLPLNHAALPPTDYDRSPFVTSPISMTMPPHGSLQGYQTYGHFPSRAIKSEYPDPYTSSPESIMGYSYMDSYQTSSPASIPHLILELLKCEPDEPQVQAKIMAYLQQEQANRSKHEKLSTFGLMCAMADATLASIVEWARSSIFFRELKVDDQMKLLQNCWSELLILDHIYRQVVHGKEGSIFLVTGQQVDYSIIASQAGATLNNLMSHAQELVAKLRSLQFDQREFVCLKFLVLFSLDVKNLENFQLVEGVQEQVNAALLDYTMCNYPQQTEKFGQLLLRLPEIRAISMQAEEYLYYKHLNGDVPYNNLLIEMLHAKRA [K301A;Q305A;F308A]
disrupting interaction | MSSNSDTGDLQESLKHGLTPIVSQFKMVNYSYDEDLEELCPVCGDKVSGYHYGLLTCESCKGFFKRTVQNNKRYTCIENQNCQIDKTQRKRCPYCRFQKCLSVGMKLEAVRADRMRGGRNKFGPMYKRDRALKQQKKALIRANGLKLEAMSQVIQAMPSDLTISSAIQNIHSASKGLPLNHAALPPTDYDRSPFVTSPISMTMPPHGSLQGYQTYGHFPSRAIKSEYPDPYTSSPESIMGYSYMDSYQTSSPASIPHLILELLKCEPDEPQVAAKIMAYLAAEQANRSKHEKLSTFGLMCKMADQTLFSIVEWARSSIFFRELKVDDQMKLLQNCWSELLILDHIYRQVVHGKEGSIFLVTGQQVDYSIIASQAGATLNNLMSHAQELVAKLRSLQFDQREFVCLKFLVLFSLDVKNLENFQLVEGVQEQVNAALLDYTMCNYPQQTEKFGQLLLRLPEIRAISMQAEEYLYYKHLNGDVPYNNLLIEMLHAKRA [Q273A;Q281A;Q282A]
